Reference: the RNAGym collection of RNA variant scans (doi:10.1073/pnas.2313332121)

B1: TPR t1 (parent)
chain: GACCAAUCUGCCCUCAGAGCUCGAGAACAUCUUCGGAUGCAGAGGAGGCAGGCUUCGGUGGCGCGAUAGCGCCAACGUCCUCAACCUCCAAUGCAUCCCACCACAUGAUGAUGCCUGAAGAGCCUUGGUUUUUUG

Variants of: B1
Test: polymerase ribozyme fitness, log enrichment relative to wild type (log ratio); higher = more active; in vitro selection for triplet polymerase activity
Method in brief: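 Fitness is a logarithmic measure of how a genotype enriched relative to the wild type, with replicate averages weighted by inverse variance. The logarithm uses base 2, and enrichment came from Illumina sequencing of input and output libraries. Those libraries were PCR-built, transcribed mutants of each subunit of a heterodimeric triplet polymerase ribozyme, passed through one triplicate in vitro selection round that included frozen incubation at −7 °C, gel excision of extended constructs and streptavidin-bead capture. Genotypes were kept only if they had ≥10 input reads and ≥1 read per output.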

| Variant | polymerase ribozyme fitness (log ratio) |
| --- | --- |
| C62G C88U | -1.37 |
| C62U U87A | 0.539 |
| C62A U106G A121G | -0.77 |
| G61U U96G U129G | -1.29 |
| G61U C86U | -0.781 |
| C62G G113U | -4.24 |
| C62G C115U | -2.93 |
| G61U A83U A91C U96A | -1.27 |
| G61C G77A | -4.61 |
| G61C G77U | -1.86 |
| C62U C85U U87A U92C C114U G117A | -6.6 |
| G61U G120U | 1.51 |
| G61U G120C | 1.18 |
| C62U U87C C88G C114A | -3.36 |
| C62U U81G | -3.67 |
| G61C G117C | -3.51 |
| G61C G117U | -4.38 |
| G61U C80A C101A | -4.47 |
| C62G G71U C97A A119G | -4.38 |
| C62A A75G G93A | -2.34 |
| G61U U132A | 0.196 |

| Variant | polymerase ribozyme fitness (log ratio) |
| --- | --- |
| G61U C62A U112A G128A U133A | -5.42 |
| C62U A90C G135U | -2.45 |
| C62G U130A | -1.59 |
| G61C U78G A111U U131A | -5.71 |
| G61U C73U G93U | -2.38 |
| C62U A74G C88A | -3.21 |
| C62A A83U U92A U116C | -5.36 |
| G61U U78C C88U U130G | -0.822 |
| G61U C79A G110U | -3.28 |
| C62U U87A U92A G120C | -3.58 |
| C62U C80G C124G | -5.66 |
| C62U C86U G117C U132A | -4.51 |
| G61U U112A | 1.27 |
| C62A A118U | -1.56 |
| G61C G122A U126C G135U | -4.38 |
| C62G G69U | -5.17 |
| C62A A66U C73U A95C C123U | -5.94 |
| C62G G128A | -2.8 |
| G61C U92A | -4.11 |
| G61U C85G | -2.33 |
| G61U G65A | -4.98 |

| Variant | polymerase ribozyme fitness (log ratio) |
| --- | --- |
| C62G G63U | -7.04 |
| C62G G63A | -3.83 |
| G61U A74G G93U G117U | -5.63 |
| G61C U131A | -2.31 |
| C62G U96A C123U | -3.13 |
| G61U A95G C124U | 1.97 |
| C62U G63U U109G | -7.47 |
| C62U U78C A100U | -0.796 |
| C62U U109A | -4.57 |
| C62U U109C | -4 |
| C62A U112A | -0.111 |
| C62A U112C | 0.245 |
| C62G C73U A74U U109G C124A | -6.92 |
| C62U C97U C115G | -3.22 |
| C62A G69U | -3.2 |
| C62U C115G | -2.51 |
| C62U C115A | 0.00277 |
| G61U A121G | 2.12 |
| G61U A121C | 1.94 |
| G61U U129G U133A | -2.01 |
| C62U C99U C101U | -3.02 |

| Variant | polymerase ribozyme fitness (log ratio) |
| --- | --- |
| C62A U129G | -1.28 |
| C62G A118G | -1.44 |
| G63A A84U U92G G117A | -6.18 |
| C62A U78C U112A U116A | -3.11 |
| C62A A105U | -3.07 |
| C62A A105C | -3.71 |
| C62U C124A | 1.84 |
| C62A U133G | -2.87 |
| C62U A121C | 1.11 |
| C62U A121U | 1.08 |
| C62A U96G | -1.8 |
| C62U G120C | 0.344 |
| C62U G117C G128A | -6.43 |
| G61U G113A C115U | -3.08 |
| C62A C70U C86A | -4.26 |
| G61U U106C G135U | -1.67 |
| G63A A84C | -0.832 |
| G61U A83C C104A C115U | -4.01 |
| C62G C88G A91U U112A | -5.1 |
| C62U C86G G117A A119U | -0.588 |
